Assay results published in article PMC6358683 (Proceedings of the National Academy of Sciences of the …, 2019).

How the values were obtained:
[1] = molecular target: HA of A/Solomon Islands/03/2006 (Influenza A virus A/Solomon …, UniProt A7Y8I1, strain); test: ELISA
[2] = molecular target: HA of A/Thailand/CU44/2006 (Influenza A virus A/Thailand/CU44/2006 …, UniProt A7LI25, strain); test: ELISA

Row | Binder | binding result [1] | binding result [2]
1 | C05 V110P (antibody, V domains shown) VH: QVQLQESGGGLVQPGESLRLSCVGSGSSFGESTLSYYAVSWVRQAPGKGLEWLSIINAGGGDIDYADSVEGRFTISRDNSKETLYLQMTNLRVEDTGVYYCAKHMSMQQVPSAGWERADLVGDAFDVWGQGTMVTVSS VL: DIQLTQSPSSLSASVGDRVTLTCQASQDIRKFLNWYQQKPGKGPKLLIYDASNLQRGVPSRFSGGGSGTDFTLIISSLQPEDVGTYYCQQYDGLPFTFGGGTKVVIK | binds | binds
2 | C05 A117E (antibody, V domains shown) VH: QVQLQESGGGLVQPGESLRLSCVGSGSSFGESTLSYYAVSWVRQAPGKGLEWLSIINAGGGDIDYADSVEGRFTISRDNSKETLYLQMTNLRVEDTGVYYCAKHMSMQQVVSAGWEREDLVGDAFDVWGQGTMVTVSS VL: DIQLTQSPSSLSASVGDRVTLTCQASQDIRKFLNWYQQKPGKGPKLLIYDASNLQRGVPSRFSGGGSGTDFTLIISSLQPEDVGTYYCQQYDGLPFTFGGGTKVVIK | binds | binds
3 | C05 V110P-A117E (antibody, V domains shown) VH: QVQLQESGGGLVQPGESLRLSCVGSGSSFGESTLSYYAVSWVRQAPGKGLEWLSIINAGGGDIDYADSVEGRFTISRDNSKETLYLQMTNLRVEDTGVYYCAKHMSMQQVPSAGWEREDLVGDAFDVWGQGTMVTVSS VL: DIQLTQSPSSLSASVGDRVTLTCQASQDIRKFLNWYQQKPGKGPKLLIYDASNLQRGVPSRFSGGGSGTDFTLIISSLQPEDVGTYYCQQYDGLPFTFGGGTKVVIK | binds | binds
